Here are results for one molecule from patent US12123876B2, “Antibody binding to HEG1 and use of the antibody for detection and treatment of mesothelioma” (Kanagawa Prefectural Hospital Organization, priority 2016, dated 2024).

Entries after “also recorded” stand apart in the source; their conditions may differ.

The test system of assay [1] is formalin-fixed tissue sections of cancers except mesothelioma. Put plainly: Hybridoma screening by immunostaining of formalin-fixed tissue sections. Particulars: hybridoma culture supernatant.
Assay [2] concerns HEG1 protein (purified from ACC-MESO4 or recombinant soluble HEG1). Briefly: Western blot / dot blot reactivity of antibodies with HEG1 protein. Type of assay: binding, human. Here is the method:
A massive amount of ACC-MESO4 was cultured, and purification of an antigen from the cell lysate was performed. Cells from 240 10-cm dishes were solubilized with 50 mM Tris buffer (pH 8.0) containing 1% TRITON™ X-100 (detergent), 1% CHAPS, 1 mM EDTA, 50 mM NaCl, and protease inhibitor (Complete, Roche Life Science), and then centrifuged. The resulting supernatant was dialyzed with 20 mM acetate buffer (pH 5.0) at 4° C. for 18 hours to afford an acidic precipitate. The precipitate was extracted with 20 mM Tris buffer (pH 7.2) containing 0.1% TWEEN® 20 (polyethylene glycol sorbitan monolaurate, polyoxyethylenesorbitan monolaurate) and 150 mM NaCl and centrifuged, and the resulting supernatant was concentrated by using an Amicon Ultra-15, 100 kDa (Merck Millipore) and subjected to solution exchange with 20 mM Tris buffer (pH 8.0) containing 6 M guanidine hydrochloride. To the concentrated solution, tris(2-carboxyethyl)phosphine hydrochloride with a final concentration of 10 mM was added, and the resultant was heated at 60° C. for 30 minutes, and iodoacetamide with a final concentration of 40 mM was then added thereto, and reacted at room temperature for 3 hours. The reaction solution was subjected to gel filtration chromatography (SUPEROSE® 6 INCREASE (prepacked column) 10/300 GL (GE Healthcare)) in 20 mM Tris buffer (pH 8.0) containing 6 M guanidine hydrochloride and 0.05% TWEEN® 20 (polyethylene glycol sorbitan monolaurate, polyoxyethylenesorbitan monolaurate), and fractions positive for dot blot were collected. The sample was dialyzed with 25 mM phosphate buffer (pH 7.0) containing 4 M urea and 0.05% TWEEN® 20 (polyethylene glycol sorbitan monolaurate, polyoxyethylenesorbitan monolaurate) at room temperature overnight, and applied to a Mono Q 5/50 GL (GE Healthcare). The column was washed with 25 mM phosphate buffer (pH 7.0) containing 4 M urea and 0.05% TWEEN® 20 (polyethylene glycol sorbitan monolaurate, polyoxyethylenesorbitan monolaurate), and thereafter elution was performed with an NaCl salt concentration gradient of 0 to 1 M. Fractions strongly positive for dot blot were collected, and dialyzed with 25 mM phosphate buffer (pH 7.2) containing 150 mM NaCl and 0.05% TWEEN® 20 (polyethylene glycol sorbitan monolaurate, polyoxyethylenesorbitan monolaurate) at room temperature overnight, and applied to 1 mL of WGA-SEPHAROSE® (wheat germ agglutinin-crosslinked, beaded-form of agarose) (J-OIL MILLS, Inc.). After washing with buffer, elution was performed with 25 mM phosphate buffer (pH 7.2) containing 0.2 M N-acetylglucosamine, 150 mM NaCl, and 0.05% TWEEN® 20 (polyethylene glycol sorbitan monolaurate, polyoxyethylenesorbitan monolaurate), and the eluent was concentrated with a Centricon (YM-30) (Millipore). Gel filtration chromatography (SUPEROSE® 6 INCREASE (prepacked column) 10/300 GL (GE Healthcare)) was performed in 25 mM phosphate buffer (pH 7.2) containing 3 M GdnHCI and 0.5% CHAPS, and fractions strongly positive for dot blot were dialyzed with 20 mM NH4HCO3 containing 0.5% CHAPS at room temperature overnight to afford a purified antigen.
The dot blot was performed as follows. A PVDF membrane (Immobilon-P, Merck Millipore) was soaked in methanol, and then washed and impregnated with pure water. The hydrophilized PVDF membrane was placed on a filter paper containing water to avoid air inclusion, removed of excessive moisture, and soaked with 1 to 5 μL of the sample in dots fed by a micropipette. After the membrane was dried at room temperature overnight, the membrane was hydrophilized again with methanol and pure water, and blocked with 20 mM Tris buffer (pH 7.4) containing 5% skim milk, 0.1% TWEEN® 20 (polyethylene glycol sorbitan monolaurate, polyoxyethylenesorbitan monolaurate), and 150 mM NaCl (blocking buffer) at room temperature for 1 hour. […]
(Immunoblotting shows a protein as a band on a membrane.)

B1: SKM9-2 antibody: mouse monoclonal IgG1 kappa antibody binding glycosylated HEG1; heavy chain SEQ ID NO: 2, light chain SEQ ID NO: 4 (antibody, listed as Mus musculus)
heavy: MGWSSIILFLVATTTGVHSQVQLQQPGAELVRPGASVKLSCKASGFSFTTYWITWVKQRPGQGLEWIGMIHPSDSETRLSQTFKDKATLTVDKSSNTAYMQFSSPTSEDSAVYYCVRDFDVWGAGTTVTVSSAKTTPPSVYPLAPGSAAQTNSMVTLGCLVKGYFPEPVTVTWNSGSLSSGVHTFPAVLQSDLYTLSSSVTVPSSTWPSETVTCNVAHPASSTKVDKKIVPRDCGCKPCICTVPEVSSVFIFPPKPKDVLTITLTPKVTCVVVDISKDDPEVQFSWFVDDVEVHTAQTQPREEQFNSTFRSVSELPIMHQDWLNGKEFKCRVNSAAFPAPIEKTISKTKGRPKAPQVYTIPPPKEQMAKDKVSLTCMITDFFPEDITVEWQWNGQPAENYKNTQPIMDTDGSYFVYSKLNVQKSNWEAGNTFTCSVLHEGLHNHHTEKSLSHSPGK
light: MKLPVRLLVLMFWIPASISDVLMTQTPLSLPVSLGDQASISCRSSQNIVHNNGNTYLGWYLQKPGQSPKLLIFKVSNRFSGVPDRFSGSGSGTDFTLKISRVEAEDLGVYYCFQGSHIPRTFGGGTRLEIKRADAAPTVSIFPPSSEQLTSGGASVVCFLNNFYPKDINVKWKIDGSERQNGVLNSWTDQDSKDSTYSMSSTLTLTKDEYERHNSYTCEATHKTSTSPIVKSFNRNEC
Turning to B1, in assay [1], the “Reactivity with formalin-fixed tissue sections of cancers except mesothelioma” value is “almost non-reactive”. Further, in assay [2] (Western blotting, antigen purified from ACC-MESO4), the “Recognition of purified antigen band at approximately 400 kDa” value was “recognized”. In assay [2] (dot blot), the “Reactivity with antigen after N-glycanase (PNGase F) treatment” value is recorded as “did not cause the antibody to lose the reactivity” and the “Reactivity with antigen after Proteinase K treatment” value was “caused the antibody to lose the reactivity”. For the same molecule, the “Reactivity with antigen treated with neuraminidase” value in assay [2] (dot blot, HEG1 protein purified from ACC-MESO4, neuraminidase treatment) was “did not bind; also recorded: weakened”.
